According to the supplement of paper PMC9732359:
± gives the uncertainty stated by the source.

Assay: protein stability index of a GFP-peptide fusion (yeast GPS) (PSI 1-4); higher = more stable; sorted into four equal gates, so the index is relative within each strain
In short: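 Sequencing reads from sorted gates were used to score each peptide. The library consisted of tiled 17-residue yeast protein peptides fused downstream of GFP on a Cherry-expressing plasmid, pooled and carried in yeast. Mid-log cultures in leucine-free medium were split into four equal gates by GFP/Cherry ratio, and each gate's plasmids were PCR-amplified and Illumina-sequenced. The protein stability index adds up, over all gates, the read frequency multiplied by the gate number.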

## ESQYPIVTEQPSAEIRE [SWP82]
doa10∆
  protein stability index: 2.56 ± 0.04
pdr5∆
  protein stability index: 2.73 ± 0.042
san1∆
  protein stability index: 2.57 ± 0.047
ubr1∆
  protein stability index: 2.56 ± 0.039

## SAKPTFSFSKSEEERKS [YOR098C/NUP1]
doa10∆
  protein stability index: 1.96 ± 0.14
san1∆
  protein stability index: 1.93 ± 0.24
ubr1∆
  protein stability index: 2.79 ± 0.25

## LLTPKSGEPIIAATQDF [RPO31]
doa10∆
  protein stability index: 2.92 ± 0.16
pdr5∆
  protein stability index: 2.57 ± 0.27

## CNEEQTLEAKIGGLLSK [RPO31]
doa10∆
  protein stability index: 3.16 ± 0.059
pdr5∆
  protein stability index: 3.25 ± 0.059
san1∆
  protein stability index: 2.99 ± 0.052
ubr1∆
  protein stability index: 2.91 ± 0.05

## ILSSVNRTVLLKIFKIF [SRB8]
doa10∆
  protein stability index: 1.37 ± 0.083
pdr5∆
  protein stability index: 1.42 ± 0.14
san1∆
  protein stability index: 1.17 ± 0.16
ubr1∆
  protein stability index: 1.13 ± 0.093

## TSDSESTLYKYLKESKR [SWI3]
doa10∆
  protein stability index: 3.11 ± 0.084
pdr5∆
  protein stability index: 2.66 ± 0.11
san1∆
  protein stability index: 2.89 ± 0.12
ubr1∆
  protein stability index: 2.74 ± 0.054

## TDWDPQFNAITGLNGSG [SMC2]
doa10∆
  protein stability index: 2.94 ± 0.19
san1∆
  protein stability index: 2.3 ± 0.19

## DFILSLLHHVSELDSND [YJL039C/NUP192]
doa10∆
  protein stability index: 1.93 ± 0.071
pdr5∆
  protein stability index: 1.88 ± 0.064
san1∆
  protein stability index: 1.42 ± 0.11
ubr1∆
  protein stability index: 2.4 ± 0.054

## KFIALCEQQPSQEREFS [SIN4]
doa10∆
  protein stability index: 2.78 ± 0.055
pdr5∆
  protein stability index: 2.82 ± 0.063
san1∆
  protein stability index: 2.67 ± 0.088
ubr1∆
  protein stability index: 2.79 ± 0.056

## VSFYFEDGTIESYNQND [SIN4]
doa10∆
  protein stability index: 2.2 ± 0.083
pdr5∆
  protein stability index: 2.34 ± 0.1
san1∆
  protein stability index: 2.41 ± 0.076
ubr1∆
  protein stability index: 2.92 ± 0.084

## SQNDGFVIIRGSQILSG [RPO31]
pdr5∆
  protein stability index: 3.13 ± 0.17
san1∆
  protein stability index: 2.86 ± 0.16
ubr1∆
  protein stability index: 2.61 ± 0.29

## IQVFEKPFLKKTQEYYT [CDC53]
doa10∆
  protein stability index: 2.36 ± 0.073
pdr5∆
  protein stability index: 2.33 ± 0.056
san1∆
  protein stability index: 2.57 ± 0.078
ubr1∆
  protein stability index: 2.57 ± 0.053

## TNKLLFKRVSQTFEAKL [NUT1]
doa10∆
  protein stability index: 1.78 ± 0.048
pdr5∆
  protein stability index: 1.7 ± 0.046
san1∆
  protein stability index: 1.74 ± 0.087
ubr1∆
  protein stability index: 1.83 ± 0.04

## ALEYIGAKVKTMRRQKL [RET1]
doa10∆
  protein stability index: 2.1 ± 0.069
pdr5∆
  protein stability index: 2.48 ± 0.097
san1∆
  protein stability index: 2.22 ± 0.089
ubr1∆
  protein stability index: 2.19 ± 0.066

## LATNSLVEEFMLLANIS [DIS3]
doa10∆
  protein stability index: 1.39 ± 0.095
pdr5∆
  protein stability index: 1.7 ± 0.099
san1∆
  protein stability index: 1.74 ± 0.16
ubr1∆
  protein stability index: 2.37 ± 0.071

## NNPDMMIQPPQQGQNMS [ROX3]
pdr5∆
  protein stability index: 2.92 ± 0.12
san1∆
  protein stability index: 3.05 ± 0.12
ubr1∆
  protein stability index: 3.14 ± 0.14

## YHFPIFNKYADPTLTTT [RPN4]
doa10∆
  protein stability index: 2.05 ± 0.037
pdr5∆
  protein stability index: 2.22 ± 0.048
san1∆
  protein stability index: 2.24 ± 0.048
ubr1∆
  protein stability index: 2.3 ± 0.036

## KGDINPEVSMIRDIREK [RPB2]
doa10∆
  protein stability index: 3.29 ± 0.16
pdr5∆
  protein stability index: 2.36 ± 0.082
san1∆
  protein stability index: 3.4 ± 0.075
ubr1∆
  protein stability index: 2.68 ± 0.13

## LVFILAVVGNNMLLDPA [RRP42]
doa10∆
  protein stability index: 1.56 ± 0.088
pdr5∆
  protein stability index: 1.39 ± 0.076
san1∆
  protein stability index: 1.94 ± 0.12
ubr1∆
  protein stability index: 1.81 ± 0.063

## GNQRKILQYSRTWYESF [YJR042W/NUP85]
doa10∆
  protein stability index: 2.36 ± 0.099
pdr5∆
  protein stability index: 2.79 ± 0.1
san1∆
  protein stability index: 2.28 ± 0.17
ubr1∆
  protein stability index: 2.21 ± 0.21

## LPSHIISTSDVTRIINS [RPL4A]
doa10∆
  protein stability index: 2.43 ± 0.033
pdr5∆
  protein stability index: 2.66 ± 0.038
san1∆
  protein stability index: 2.41 ± 0.035
ubr1∆
  protein stability index: 2.55 ± 0.029

## ETHSKKRKKEANEEPNT [ITC1]
doa10∆
  protein stability index: 2.69 ± 0.096
pdr5∆
  protein stability index: 2.6 ± 0.072
san1∆
  protein stability index: 3.13 ± 0.058
ubr1∆
  protein stability index: 2.17 ± 0.058

## LIEILRLRALQLYFQKN [RRI2]
doa10∆
  protein stability index: 1.17 ± 0.049
pdr5∆
  protein stability index: 1.28 ± 0.072
san1∆
  protein stability index: 1.26 ± 0.12
ubr1∆
  protein stability index: 1.04 ± 0.076

## QLTSLEKDCSLRAIEKN [YIL149C/MLP2]
doa10∆
  protein stability index: 2.58 ± 0.068
pdr5∆
  protein stability index: 2.8 ± 0.064
san1∆
  protein stability index: 2.98 ± 0.058
ubr1∆
  protein stability index: 3.06 ± 0.047

## TMANILYYPQKPLGTTR [RPB2]
doa10∆
  protein stability index: 1.77 ± 0.057
pdr5∆
  protein stability index: 2.47 ± 0.095
san1∆
  protein stability index: 2.27 ± 0.074
ubr1∆
  protein stability index: 1.45 ± 0.04

## PSLNPIPHFIDNNSSLN [PRP8]
doa10∆
  protein stability index: 2.3 ± 0.063
pdr5∆
  protein stability index: 2.52 ± 0.05
san1∆
  protein stability index: 2.78 ± 0.055
ubr1∆
  protein stability index: 2.4 ± 0.045

## ENNDDALDLDLDLFDPD [MED4]
doa10∆
  protein stability index: 2.89 ± 0.067
pdr5∆
  protein stability index: 2.98 ± 0.098
san1∆
  protein stability index: 2.79 ± 0.052
ubr1∆
  protein stability index: 3.1 ± 0.051

## VPATAAPGTEAGIVPVS [SWI1]
doa10∆
  protein stability index: 3.1 ± 0.069
pdr5∆
  protein stability index: 3 ± 0.084
san1∆
  protein stability index: 3.14 ± 0.066
ubr1∆
  protein stability index: 3.15 ± 0.07

## KLQKYGAAVRLTGSDRV [RPN7]
pdr5∆
  protein stability index: 3.62 ± 0.27
ubr1∆
  protein stability index: 2.99 ± 0.14

## KPMAFSNTTTHVPEKKS [MTR3]
doa10∆
  protein stability index: 1.46 ± 0.053
pdr5∆
  protein stability index: 2.04 ± 0.052
san1∆
  protein stability index: 2.32 ± 0.082
ubr1∆
  protein stability index: 1.62 ± 0.034

## DDELMNWRRLSGRNIHL [SSN2]
doa10∆
  protein stability index: 3 ± 0.088
pdr5∆
  protein stability index: 2.91 ± 0.074
san1∆
  protein stability index: 3.01 ± 0.087
ubr1∆
  protein stability index: 3.19 ± 0.09

## LPRCSKEEFRLMISPKD [RRI2]
doa10∆
  protein stability index: 1.77 ± 0.056
pdr5∆
  protein stability index: 1.88 ± 0.063
san1∆
  protein stability index: 1.58 ± 0.16
ubr1∆
  protein stability index: 1.67 ± 0.044

## VDQGQIYRDRSTFTKHL [ITC1]
doa10∆
  protein stability index: 3.2 ± 0.06
pdr5∆
  protein stability index: 3.33 ± 0.067
san1∆
  protein stability index: 3.15 ± 0.042
ubr1∆
  protein stability index: 3.15 ± 0.037

## NDSKEESTTEATGNESQ [YLR335W/NUP2]
pdr5∆
  protein stability index: 3.14 ± 0.18
san1∆
  protein stability index: 2.97 ± 0.22
ubr1∆
  protein stability index: 3.35 ± 0.1

## KSNGLAPEIPEDLYYLI [RPS13]
doa10∆
  protein stability index: 2.65 ± 0.081
pdr5∆
  protein stability index: 2.83 ± 0.13
san1∆
  protein stability index: 2.45 ± 0.11
ubr1∆
  protein stability index: 2.4 ± 0.14

## DVMDELITSSARKELPI [SIR3]
pdr5∆
  protein stability index: 2.26 ± 0.13
san1∆
  protein stability index: 2.7 ± 0.27
ubr1∆
  protein stability index: 2.42 ± 0.18

## KDVLAQTSVTTNFNEIT [SWP82]
doa10∆
  protein stability index: 2.3 ± 0.079
pdr5∆
  protein stability index: 2.75 ± 0.06
san1∆
  protein stability index: 2.7 ± 0.071
ubr1∆
  protein stability index: 2.76 ± 0.045

## KKSQCKKKTTLEDFENF [YIL149C/MLP2]
doa10∆
  protein stability index: 2.87 ± 0.053
pdr5∆
  protein stability index: 3.04 ± 0.051
san1∆
  protein stability index: 3.08 ± 0.04
ubr1∆
  protein stability index: 3.14 ± 0.048

## AIRRDARYNWICDPVHK [RPL15A]
doa10∆
  protein stability index: 2.71 ± 0.1
pdr5∆
  protein stability index: 3.37 ± 0.12
san1∆
  protein stability index: 3.25 ± 0.11
ubr1∆
  protein stability index: 3.18 ± 0.076

## MRLIKRVRAESLHSNSF [YJL039C/NUP192]
doa10∆
  protein stability index: 2.12 ± 0.11
pdr5∆
  protein stability index: 1.64 ± 0.14
ubr1∆
  protein stability index: 2.44 ± 0.12

## IHVLEQDGGIMGSLING [SKI6]
doa10∆
  protein stability index: 3.45 ± 0.09
pdr5∆
  protein stability index: 3.1 ± 0.1
san1∆
  protein stability index: 3.36 ± 0.082
ubr1∆
  protein stability index: 3.18 ± 0.066

## SALTSPTDSSKILQKRS [SIR3]
doa10∆
  protein stability index: 2.99 ± 0.053
pdr5∆
  protein stability index: 3.12 ± 0.054
san1∆
  protein stability index: 2.92 ± 0.047
ubr1∆
  protein stability index: 3.04 ± 0.039

## IELSVPDRQSMDSRVAH [SRB5]
doa10∆
  protein stability index: 3.11 ± 0.17
pdr5∆
  protein stability index: 2.96 ± 0.14
san1∆
  protein stability index: 3.17 ± 0.13
ubr1∆
  protein stability index: 3.16 ± 0.089

## KISNSEFFNPEIFHLLQ [SIN4]
doa10∆
  protein stability index: 2.13 ± 0.079
pdr5∆
  protein stability index: 1.74 ± 0.072
san1∆
  protein stability index: 1.61 ± 0.087
ubr1∆
  protein stability index: 2.16 ± 0.07

## GSTSLIEGMEQRIIKEL [ARP7]
doa10∆
  protein stability index: 3.19 ± 0.12
pdr5∆
  protein stability index: 3.23 ± 0.12
san1∆
  protein stability index: 2.98 ± 0.24
ubr1∆
  protein stability index: 2.71 ± 0.21

## LSGNPLTSVTNDICSVE [SIR4]
doa10∆
  protein stability index: 2.54 ± 0.068
pdr5∆
  protein stability index: 2.95 ± 0.064
san1∆
  protein stability index: 3.09 ± 0.058
ubr1∆
  protein stability index: 2.96 ± 0.062

## NVYRVTVHKTFEGNVAT [PRP8]
pdr5∆
  protein stability index: 3.16 ± 0.23
san1∆
  protein stability index: 3.23 ± 0.22
ubr1∆
  protein stability index: 3.33 ± 0.15

## LSLQRANVEILAVEDKP [CSL4]
doa10∆
  protein stability index: 1.35 ± 0.054
pdr5∆
  protein stability index: 1.44 ± 0.061
san1∆
  protein stability index: 1.67 ± 0.092
ubr1∆
  protein stability index: 1.61 ± 0.044

## VMTISSLEQRTLNPDLF [RPC82]
pdr5∆
  protein stability index: 3.1 ± 0.28

## KKSEEKLREKVNDVELA [MTW1]
doa10∆
  protein stability index: 3.08 ± 0.13
pdr5∆
  protein stability index: 3.03 ± 0.13
san1∆
  protein stability index: 3.05 ± 0.14
ubr1∆
  protein stability index: 3.06 ± 0.21

## NDFANNLPKEGDIVLTR [CSL4]
doa10∆
  protein stability index: 2.89 ± 0.15
pdr5∆
  protein stability index: 3.32 ± 0.17
san1∆
  protein stability index: 2.44 ± 0.12
ubr1∆
  protein stability index: 2.97 ± 0.19

## EQIDENWSKEDLQKLLK [SWI3]
doa10∆
  protein stability index: 3.16 ± 0.067
pdr5∆
  protein stability index: 3.08 ± 0.085
san1∆
  protein stability index: 3.02 ± 0.073
ubr1∆
  protein stability index: 3.26 ± 0.058

## LRLSNFFTIDHFIQKLH [SIR2]
doa10∆
  protein stability index: 2.32 ± 0.085
pdr5∆
  protein stability index: 2.2 ± 0.07
san1∆
  protein stability index: 2.23 ± 0.074
ubr1∆
  protein stability index: 2.05 ± 0.068

## WVNMLLISSSGPIKTPV [FAS2]
doa10∆
  protein stability index: 1.87 ± 0.059
pdr5∆
  protein stability index: 1.32 ± 0.051
san1∆
  protein stability index: 1.23 ± 0.082
ubr1∆
  protein stability index: 1.53 ± 0.047
